The target of this experiment is T1, mouse Plasma Cell Membrane Glycoprotein-1 (PC-1) (mouse, UniProt P06802 1-906, limits assumed).
T1 construct: Measured as NTPPPH activity, which in these cells also includes the isozyme B10; also called Enpp1; NPP1
T1 sequence (looked up): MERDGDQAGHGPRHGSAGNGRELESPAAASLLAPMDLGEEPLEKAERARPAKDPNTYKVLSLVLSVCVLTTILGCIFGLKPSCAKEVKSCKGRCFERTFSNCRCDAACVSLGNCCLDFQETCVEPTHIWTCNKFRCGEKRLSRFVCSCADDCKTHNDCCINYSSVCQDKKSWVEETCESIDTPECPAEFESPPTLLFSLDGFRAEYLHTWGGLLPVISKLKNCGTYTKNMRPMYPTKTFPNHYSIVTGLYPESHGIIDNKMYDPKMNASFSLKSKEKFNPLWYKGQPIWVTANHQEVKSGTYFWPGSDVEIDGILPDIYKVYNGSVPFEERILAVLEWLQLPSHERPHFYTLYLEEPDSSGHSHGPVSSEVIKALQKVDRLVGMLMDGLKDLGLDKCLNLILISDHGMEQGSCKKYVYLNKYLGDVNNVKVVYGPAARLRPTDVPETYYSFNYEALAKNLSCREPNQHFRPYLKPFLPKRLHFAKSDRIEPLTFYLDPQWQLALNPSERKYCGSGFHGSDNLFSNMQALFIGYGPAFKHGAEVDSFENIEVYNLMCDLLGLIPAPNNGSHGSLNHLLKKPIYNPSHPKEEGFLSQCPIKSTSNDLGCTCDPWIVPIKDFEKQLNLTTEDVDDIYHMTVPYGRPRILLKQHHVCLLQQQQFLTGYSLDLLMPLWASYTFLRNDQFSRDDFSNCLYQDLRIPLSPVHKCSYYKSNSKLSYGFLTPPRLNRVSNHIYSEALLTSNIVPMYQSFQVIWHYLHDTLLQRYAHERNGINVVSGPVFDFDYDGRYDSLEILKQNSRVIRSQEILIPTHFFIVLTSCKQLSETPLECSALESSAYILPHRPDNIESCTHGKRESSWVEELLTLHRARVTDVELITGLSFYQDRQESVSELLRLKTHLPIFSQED
Nature of the experiment: co-immunoprecipitation from osteoblast cell lysates, enzyme activity on beads. The text has this:
Paradoxically, transfection of wild-type TNAP was associated with a significant increase in cell-associated NTPPPH, and an even greater increase in MV fraction-associated NTPPPH activity in MC3T3 cells, but no significant change in activity of transglutaminase activity, which served as a control enzyme for these experiments. […] Specifically, immunoprecipitation of TNAP from osteoblast cell lysates isolated >85% of the TNAP activity, but was not associated with any co-immunoprecipitation of NTPPPH activity (starting mean cell lysate NTPPPH 1.7 Units, and alkaline phosphatase 4.3 Units; beads after immunoprecipitation with antibody to TNAP had mean of 0.09 Units NTPPPH and 4.1 Units alkaline phosphatase; beads after immunoprecipitation with antibody to PC-1 had mean of 1.3 Units NTPPPH and 0.11 Units alkaline phosphatase, n=5).

B1: mouse tissue-nonspecific alkaline phosphatase (TNAP) (enzyme, UniProt P09242 18-501, looked up)
chain: FVPEKERDPSYWRQQAQETLKNALKLQKLNTNVAKNVIMFLGDGMGVSTVTAARILKGQLHHNTGEETRLEMDKFPFVALSKTYNTNAQVPDSAGTATAYLCGVKANEGTVGVSAATERTRCNTTQGNEVTSILRWAKDAGKSVGIVTTTRVNHATPSAAYAHSADRDWYSDNEMPPEALSQGCKDIAYQLMHNIKDIDVIMGGGRKYMYPKNRTDVEYELDEKARGTRLDGLDLISIWKSFKPRHKHSHYVWNRTELLALDPSRVDYLLGLFEPGDMQYELNRNNLTDPSLSEMVEVALRILTKNLKGFFLLVEGGRIDHGHHEGKAKQALHEAVEMDQAIGKAGAMTSQKDTLTVVTADHSHVFTFGGYTPRGNSIFGLAPMVSDTDKKPFTAILYGNGPGYKVVDGERENVSMVDYAHNNYQAQSAVPLRHETHGGEDVAVFAKGPMAHLLHGVHEQNYIPHVMAYASCIGANLDHCAWAG
notes: The lysates are called only 'osteoblast cell lysates'; Some MC3T3 cells were transfected with human TNAP, so the species in this experiment is not certain; also called Akp2
Regarding B1, the binding result is “no binding”.

Values taken from patent US20040023916A1 (NATIONAL INSTITUTES OF HEALTH NIH, published 2004).
